How the values were obtained:
[1] = biological target: T1, BCMA-His protein (extracellular region of human BCMA, His-tagged) (human, UniProt Q02223 1-54); assay: monoclonal phage ELISA on coated BCMA protein, HA-HRP detection
T1 construct: extracellular domain; Made in house and purified on a Ni column; also called human BCMA antigen; recombinant BCMA-His protein; not shown: His tag
T1 sequence (looked up): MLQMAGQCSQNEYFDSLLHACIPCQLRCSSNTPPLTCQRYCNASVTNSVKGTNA

[2] = biological target: T1, BCMA-His protein (extracellular region …); assay: ELISA, BCMA-His coated, anti-human IgG1 Fc-HRP detection
[3] = biological target: T1, BCMA-His protein (extracellular region …); assay: SPR (Biacore 8K), BCMA-His captured on NTA chip, nanobody-Fc as analyte, 1:1 binding fit
[4] = biological target: T1, BCMA-His protein (extracellular region …); assay: flow cytometry of CAR-T cells stained with BCMA-His and an anti-His tag antibody
[5] = biological target: T1, BCMA-His protein (extracellular region …); assay: flow cytometry (MFI) of transduced K562 cells stained with BCMA-His and an anti-His tag antibody

B1: Nb003-01 (VHH01), monoclonal phage clone (VHH)
VHH: QVQLQESGGGSVQPGGSLRLSCKASGFTFSPSAMSWARQAPGKEIEWVSNIYPDGRTYYADSMKGRFTISRDNAENTVYLQMNSLKPEDTAVYYCLIGVGIVAGQVVSPYWGQGTQVTVSS
B1: binds [1].

B2: Nb003-02-Fc (Fc fusion)
chain: QVQLQESGGGLVQPGGSLRLSCAASGFTFSNYAMSWFRQGPGKERELVAGIDRTGGSTRTADSVQGRFTISRDNAKNKVYLQMNSLKPEDTAVYYCKALRTPGWGTSPDVVGYWGQGTQVTVSS
modifications: biotinylated for the flow cytometry assay only (sites not given)
notes: also called VHH02; not shown: N-terminal SUMO tag from plasmid pET-28a-Sumo-Nb-Fc; human IgG1 Fc tag at the C-terminus
Binder B2 has an EC50 [2] of 0.652 nM, a Kd [3] of 1.79 nM and a koff [3] of 0.00212 s⁻¹. It also gave a kon [3] of 1.19e+06 M⁻¹ s⁻¹.

B3: dNb003-B-Fc (Fc fusion)
chain: QVQLQESGGGSVQPGGSLRLSCKASGFTFSPSAMSWARQAPGKEIEWVSNIYPDGRTYYADSMKGRFTISRDNAENTVYLQMNSLKPEDTAVYYCLIGVGIVAGQVVSPYWGQGTQVTVSSGGGGSGGGGSGGGGSGGGGSGGGGSQVQLQESGGGLVQPGGSLRLSCAASGFTFSNYAMSWFRQGPGKERELVAGIDRTGGSTRTADSVQGRFTISRDNAKNKVYLQMNSLKPEDTAVYYCKALRTPGWGTSPDVVGYWGQGTQVTVSS
modifications: biotinylated for the flow cytometry assay only (sites not given)
notes: not shown: N-terminal SUMO tag from plasmid pET-28a-Sumo-Nb-Fc; human IgG1 Fc tag at the C-terminus
For B3, the EC50 [2] was 0.346 nM, the Kd [3] was 1.94 nM and the koff [3] was 0.00245 s⁻¹. The kon [3] was 1.27e+06 M⁻¹ s⁻¹.

B4: Nb003-01-Fc (Fc fusion)
chain: QVQLQESGGGSVQPGGSLRLSCKASGFTFSPSAMSWARQAPGKEIEWVSNIYPDGRTYYADSMKGRFTISRDNAENTVYLQMNSLKPEDTAVYYCLIGVGIVAGQVVSPYWGQGTQVTVSS
modifications: biotinylated for the flow cytometry assay only (sites not given)
notes: also called VHH01; not shown: N-terminal SUMO tag from plasmid pET-28a-Sumo-Nb-Fc; human IgG1 Fc tag at the C-terminus
Work on B4 yielded an EC50 [2] of 2.05 nM, a Kd [3] of 62 nM and a koff [3] of 0.000857 s⁻¹. For the same binder, the kon [3] was 13800 M⁻¹ s⁻¹.

B5: Nb003-02 (VHH02), monoclonal phage clone (VHH)
VHH: QVQLQESGGGLVQPGGSLRLSCAASGFTFSNYAMSWFRQGPGKERELVAGIDRTGGSTRTADSVQGRFTISRDNAKNKVYLQMNSLKPEDTAVYYCKALRTPGWGTSPDVVGYWGQGTQVTVSS
B5: binds [1].

B6: NMC003-01 (single VHH CAR with VHH01, on CAR-T cells) (other)
chain: QVQLQESGGGSVQPGGSLRLSCKASGFTFSPSAMSWARQAPGKEIEWVSNIYPDGRTYYADSMKGRFTISRDNAENTVYLQMNSLKPEDTAVYYCLIGVGIVAGQVVSPYWGQGTQVTVSSTTPAPRPPTPAPTIASQPLSLRPEACRPAAGGAVHTRGLDFACDIYIWAPLAGTCGVLLLSLVITLYCKRGRKKLLYIFKQPFMRPVQTTQEEDGCSCRFPEEEEGGCELRVKFSRSADAPAYKQGQNQLYNELNLGRREEYDVLDKRRGRDPEMGGKPRRKNPQEGLYNELQKDKMAEAYSEIGMKGERRRGKGHDGLYQGLSTATKDTYDALHMQALPPR
notes: also called NMC003-01 CAR-T
B6: binds [4].

B7: dNMC003-A (dual VHH CAR, VHH02-(G4S)5-VHH02, on K562 or CAR-T cells) (other)
chain: QVQLQESGGGLVQPGGSLRLSCAASGFTFSNYAMSWFRQGPGKERELVAGIDRTGGSTRTADSVQGRFTISRDNAKNKVYLQMNSLKPEDTAVYYCKALRTPGWGTSPDVVGYWGQGTQVTVSSGGGGSGGGGSGGGGSGGGGSGGGGSQVQLQESGGGLVQPGGSLRLSCAASGFTFSNYAMSWFRQGPGKERELVAGIDRTGGSTRTADSVQGRFTISRDNAKNKVYLQMNSLKPEDTAVYYCKALRTPGWGTSPDVVGYWGQGTQVTVSSTTPAPRPPTPAPTIASQPLSLRPEACRPAAGGAVHTRGLDFACDIYIWAPLAGTCGVLLLSLVITLYCKRGRKKLLYIFKQPFMRPVQTTQEEDGCSCRFPEEEEGGCELRVKFSRSADAPAYKQGQNQLYNELNLGRREEYDVLDKRRGRDPEMGGKPRRKNPQEGLYNELQKDKMAEAYSEIGMKGERRRGKGHDGLYQGLSTATKDTYDALHMQALPPR
notes: T2A-tEGFR follows in the construct and is split off at T2A; also called K562-dNMC003-A; dNMC003-A CAR-T
B7: binds [5].

B8: dNMC003-B (dual VHH CAR, VHH01-(G4S)5-VHH02, on K562 or CAR-T cells) (other)
chain: QVQLQESGGGSVQPGGSLRLSCKASGFTFSPSAMSWARQAPGKEIEWVSNIYPDGRTYYADSMKGRFTISRDNAENTVYLQMNSLKPEDTAVYYCLIGVGIVAGQVVSPYWGQGTQVTVSSGGGGSGGGGSGGGGSGGGGSGGGGSQVQLQESGGGLVQPGGSLRLSCAASGFTFSNYAMSWFRQGPGKERELVAGIDRTGGSTRTADSVQGRFTISRDNAKNKVYLQMNSLKPEDTAVYYCKALRTPGWGTSPDVVGYWGQGTQVTVSSTTPAPRPPTPAPTIASQPLSLRPEACRPAAGGAVHTRGLDFACDIYIWAPLAGTCGVLLLSLVITLYCKRGRKKLLYIFKQPFMRPVQTTQEEDGCSCRFPEEEEGGCELRVKFSRSADAPAYKQGQNQLYNELNLGRREEYDVLDKRRGRDPEMGGKPRRKNPQEGLYNELQKDKMAEAYSEIGMKGERRRGKGHDGLYQGLSTATKDTYDALHMQALPPR
notes: T2A-tEGFR follows in the construct and is split off at T2A; also called K562-dNMC003-B; dNMC003-B CAR-T
B8: binds [5].

— EP4644418A1 (Hebei Senlang Biotechnology Co. Ltd., dated 2025)
